Assay results from patent publication US10500249B2, “Compositions and methods for preventing or treating diseases, conditions, or processes characterized by aberrant fibroblast proliferation and extracellular matrix deposition” (MOERAE MATRIX, INC., priority 2014, dated 2019).

What was measured:
Assay in all cases: Kinase Profiling Assay
Assay type in all cases: biochemical
Conditions in all cases: 100 μM
CDK2/cyclinE (h) = molecular target: T1, CDK2/cyclinE (h) (Homo sapiens, UniProt P24941)
T1 construct: purchased Millipore
Method in brief: (§1)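 Activity remaining relative to an uninhibited control was determined by scintillation counting of labeled substrate bound to a negatively charged filter. Radiolabeled phosphate came from ATP; the substrate carried positive charge. Duplicate measurements, within a 266-kinase human panel.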

Rsk4 (h) = Rsk4 (h) (Homo sapiens, UniProt Q9UK32)
Method in brief: as §1

Ret(V804M) (h) = Ret(V804M) (h) (Homo sapiens, UniProt P07949, V804M)
Method in brief: as §1

ErbB4 (h) = ErbB4 (h) (Homo sapiens, UniProt Q15303)
Method in brief: as §1

Mer (h) = molecular target: T2, Mer (h) (Homo sapiens, UniProt Q12866)
T2 sequence (Q12866 21-999): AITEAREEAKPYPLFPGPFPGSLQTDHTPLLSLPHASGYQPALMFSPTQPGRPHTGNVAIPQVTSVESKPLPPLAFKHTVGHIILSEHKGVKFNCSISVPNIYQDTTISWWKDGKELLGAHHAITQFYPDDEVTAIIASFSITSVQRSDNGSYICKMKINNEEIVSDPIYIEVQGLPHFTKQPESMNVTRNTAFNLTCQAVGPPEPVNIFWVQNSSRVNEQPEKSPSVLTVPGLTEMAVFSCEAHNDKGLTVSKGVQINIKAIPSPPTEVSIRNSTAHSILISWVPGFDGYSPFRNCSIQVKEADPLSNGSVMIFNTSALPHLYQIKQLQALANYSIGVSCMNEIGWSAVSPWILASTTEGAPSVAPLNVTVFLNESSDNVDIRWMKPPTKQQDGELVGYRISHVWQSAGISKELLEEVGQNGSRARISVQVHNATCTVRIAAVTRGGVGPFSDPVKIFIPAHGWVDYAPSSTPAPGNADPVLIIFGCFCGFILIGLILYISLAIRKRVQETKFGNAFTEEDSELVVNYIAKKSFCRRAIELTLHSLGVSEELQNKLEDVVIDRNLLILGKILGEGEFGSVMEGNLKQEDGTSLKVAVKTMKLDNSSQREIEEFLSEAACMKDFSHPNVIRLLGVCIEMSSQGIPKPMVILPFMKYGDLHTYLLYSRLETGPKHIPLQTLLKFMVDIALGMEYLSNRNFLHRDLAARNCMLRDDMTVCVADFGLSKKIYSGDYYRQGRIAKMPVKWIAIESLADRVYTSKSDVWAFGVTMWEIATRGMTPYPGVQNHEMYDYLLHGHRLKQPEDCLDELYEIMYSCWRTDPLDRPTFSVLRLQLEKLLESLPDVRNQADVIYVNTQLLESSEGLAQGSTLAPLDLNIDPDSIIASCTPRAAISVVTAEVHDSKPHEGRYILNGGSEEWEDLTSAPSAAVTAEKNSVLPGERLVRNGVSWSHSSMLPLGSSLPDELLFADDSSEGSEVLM
Method in brief: as §1

Haspin (h) = molecular target: T3, Haspin (h) (Homo sapiens, UniProt Q8TF76)
T3 construct: purchased Millipore
T3 sequence (Q8TF76 1-798): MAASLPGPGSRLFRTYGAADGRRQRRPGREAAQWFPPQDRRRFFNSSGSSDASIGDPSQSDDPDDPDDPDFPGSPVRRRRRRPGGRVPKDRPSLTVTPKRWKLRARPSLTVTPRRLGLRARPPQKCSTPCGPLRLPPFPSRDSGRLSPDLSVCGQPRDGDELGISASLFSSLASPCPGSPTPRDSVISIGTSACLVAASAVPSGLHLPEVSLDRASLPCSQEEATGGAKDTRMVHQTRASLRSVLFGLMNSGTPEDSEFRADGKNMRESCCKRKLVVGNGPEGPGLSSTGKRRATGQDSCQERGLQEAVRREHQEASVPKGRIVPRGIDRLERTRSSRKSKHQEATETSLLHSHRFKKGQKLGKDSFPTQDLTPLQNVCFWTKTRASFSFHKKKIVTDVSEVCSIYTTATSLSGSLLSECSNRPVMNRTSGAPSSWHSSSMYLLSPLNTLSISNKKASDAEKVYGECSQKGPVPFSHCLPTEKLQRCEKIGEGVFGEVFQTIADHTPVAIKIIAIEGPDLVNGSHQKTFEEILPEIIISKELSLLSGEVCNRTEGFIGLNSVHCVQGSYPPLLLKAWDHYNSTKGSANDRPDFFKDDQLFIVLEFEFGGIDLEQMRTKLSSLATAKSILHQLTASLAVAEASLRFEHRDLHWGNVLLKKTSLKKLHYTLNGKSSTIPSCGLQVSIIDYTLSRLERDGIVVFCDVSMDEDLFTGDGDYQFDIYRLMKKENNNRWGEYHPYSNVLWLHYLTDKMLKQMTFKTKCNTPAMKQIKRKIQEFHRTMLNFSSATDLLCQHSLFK
Method in brief: as §1

MRCKβ (h) = molecular target: T4, MRCKβ (h) (Homo sapiens, UniProt Q9Y5S2)
T4 construct: purchased Millipore
Method in brief: as §1

LIMK1 (h) = LIMK1 (h) (Homo sapiens, UniProt P53667)
Method in brief: as §1

Src(T341M) (h) = Src(T341M) (h) (Homo sapiens, UniProt P12931, T341M)
Method in brief: as §1

Pim-1 (h) = molecular target: T5, Pim-1 (h) (Homo sapiens, UniProt P11309)
T5 construct: purchased Millipore
Method in brief: as §1

LIMK1 (h), sequence (P53667 whole entry): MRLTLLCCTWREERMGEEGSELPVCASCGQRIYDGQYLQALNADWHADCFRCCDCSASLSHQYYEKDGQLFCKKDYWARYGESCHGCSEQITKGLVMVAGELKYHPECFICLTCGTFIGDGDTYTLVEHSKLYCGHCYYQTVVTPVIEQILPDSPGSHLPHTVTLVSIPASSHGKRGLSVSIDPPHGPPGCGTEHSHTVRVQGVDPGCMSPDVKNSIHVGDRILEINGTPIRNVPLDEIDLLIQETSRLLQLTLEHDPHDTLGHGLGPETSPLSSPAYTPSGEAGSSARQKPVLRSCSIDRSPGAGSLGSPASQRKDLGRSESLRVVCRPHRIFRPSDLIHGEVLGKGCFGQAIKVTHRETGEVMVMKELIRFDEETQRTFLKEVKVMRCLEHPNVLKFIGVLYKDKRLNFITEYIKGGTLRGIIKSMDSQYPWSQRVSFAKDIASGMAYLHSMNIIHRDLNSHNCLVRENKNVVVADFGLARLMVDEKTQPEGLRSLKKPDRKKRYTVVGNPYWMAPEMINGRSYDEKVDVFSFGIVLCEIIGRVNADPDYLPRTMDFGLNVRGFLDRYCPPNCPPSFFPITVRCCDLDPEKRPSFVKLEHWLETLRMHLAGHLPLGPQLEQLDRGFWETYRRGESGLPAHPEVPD
T5 sequence (P11309 whole entry): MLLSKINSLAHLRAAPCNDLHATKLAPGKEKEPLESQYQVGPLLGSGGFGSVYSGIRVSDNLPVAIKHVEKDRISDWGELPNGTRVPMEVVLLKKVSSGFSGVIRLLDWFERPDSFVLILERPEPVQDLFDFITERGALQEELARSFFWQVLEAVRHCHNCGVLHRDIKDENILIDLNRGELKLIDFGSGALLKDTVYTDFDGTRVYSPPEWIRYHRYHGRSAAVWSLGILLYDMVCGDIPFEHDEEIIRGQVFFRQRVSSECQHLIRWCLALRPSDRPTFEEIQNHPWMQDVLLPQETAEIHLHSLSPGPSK
Rsk4 (h), sequence (Q9UK32 whole entry): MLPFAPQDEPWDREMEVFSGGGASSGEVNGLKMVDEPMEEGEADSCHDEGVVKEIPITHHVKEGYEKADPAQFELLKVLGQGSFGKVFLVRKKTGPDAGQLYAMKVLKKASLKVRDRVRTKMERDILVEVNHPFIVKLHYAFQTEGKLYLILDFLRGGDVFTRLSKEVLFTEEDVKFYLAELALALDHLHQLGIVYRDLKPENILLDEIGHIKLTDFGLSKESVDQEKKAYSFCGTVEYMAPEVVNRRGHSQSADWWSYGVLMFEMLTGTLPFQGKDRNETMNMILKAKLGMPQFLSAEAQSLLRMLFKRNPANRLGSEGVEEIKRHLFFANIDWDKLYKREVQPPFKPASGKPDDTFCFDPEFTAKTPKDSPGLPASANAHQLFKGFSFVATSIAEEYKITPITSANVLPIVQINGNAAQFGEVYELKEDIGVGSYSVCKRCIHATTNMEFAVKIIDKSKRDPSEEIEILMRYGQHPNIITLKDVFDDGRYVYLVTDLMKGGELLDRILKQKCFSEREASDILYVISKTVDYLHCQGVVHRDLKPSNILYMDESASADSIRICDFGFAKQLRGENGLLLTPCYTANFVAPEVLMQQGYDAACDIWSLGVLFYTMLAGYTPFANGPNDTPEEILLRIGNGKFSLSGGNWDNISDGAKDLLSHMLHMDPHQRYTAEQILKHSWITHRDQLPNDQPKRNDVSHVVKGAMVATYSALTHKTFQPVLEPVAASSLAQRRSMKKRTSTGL
T4 sequence (Q9Y5S2 whole entry): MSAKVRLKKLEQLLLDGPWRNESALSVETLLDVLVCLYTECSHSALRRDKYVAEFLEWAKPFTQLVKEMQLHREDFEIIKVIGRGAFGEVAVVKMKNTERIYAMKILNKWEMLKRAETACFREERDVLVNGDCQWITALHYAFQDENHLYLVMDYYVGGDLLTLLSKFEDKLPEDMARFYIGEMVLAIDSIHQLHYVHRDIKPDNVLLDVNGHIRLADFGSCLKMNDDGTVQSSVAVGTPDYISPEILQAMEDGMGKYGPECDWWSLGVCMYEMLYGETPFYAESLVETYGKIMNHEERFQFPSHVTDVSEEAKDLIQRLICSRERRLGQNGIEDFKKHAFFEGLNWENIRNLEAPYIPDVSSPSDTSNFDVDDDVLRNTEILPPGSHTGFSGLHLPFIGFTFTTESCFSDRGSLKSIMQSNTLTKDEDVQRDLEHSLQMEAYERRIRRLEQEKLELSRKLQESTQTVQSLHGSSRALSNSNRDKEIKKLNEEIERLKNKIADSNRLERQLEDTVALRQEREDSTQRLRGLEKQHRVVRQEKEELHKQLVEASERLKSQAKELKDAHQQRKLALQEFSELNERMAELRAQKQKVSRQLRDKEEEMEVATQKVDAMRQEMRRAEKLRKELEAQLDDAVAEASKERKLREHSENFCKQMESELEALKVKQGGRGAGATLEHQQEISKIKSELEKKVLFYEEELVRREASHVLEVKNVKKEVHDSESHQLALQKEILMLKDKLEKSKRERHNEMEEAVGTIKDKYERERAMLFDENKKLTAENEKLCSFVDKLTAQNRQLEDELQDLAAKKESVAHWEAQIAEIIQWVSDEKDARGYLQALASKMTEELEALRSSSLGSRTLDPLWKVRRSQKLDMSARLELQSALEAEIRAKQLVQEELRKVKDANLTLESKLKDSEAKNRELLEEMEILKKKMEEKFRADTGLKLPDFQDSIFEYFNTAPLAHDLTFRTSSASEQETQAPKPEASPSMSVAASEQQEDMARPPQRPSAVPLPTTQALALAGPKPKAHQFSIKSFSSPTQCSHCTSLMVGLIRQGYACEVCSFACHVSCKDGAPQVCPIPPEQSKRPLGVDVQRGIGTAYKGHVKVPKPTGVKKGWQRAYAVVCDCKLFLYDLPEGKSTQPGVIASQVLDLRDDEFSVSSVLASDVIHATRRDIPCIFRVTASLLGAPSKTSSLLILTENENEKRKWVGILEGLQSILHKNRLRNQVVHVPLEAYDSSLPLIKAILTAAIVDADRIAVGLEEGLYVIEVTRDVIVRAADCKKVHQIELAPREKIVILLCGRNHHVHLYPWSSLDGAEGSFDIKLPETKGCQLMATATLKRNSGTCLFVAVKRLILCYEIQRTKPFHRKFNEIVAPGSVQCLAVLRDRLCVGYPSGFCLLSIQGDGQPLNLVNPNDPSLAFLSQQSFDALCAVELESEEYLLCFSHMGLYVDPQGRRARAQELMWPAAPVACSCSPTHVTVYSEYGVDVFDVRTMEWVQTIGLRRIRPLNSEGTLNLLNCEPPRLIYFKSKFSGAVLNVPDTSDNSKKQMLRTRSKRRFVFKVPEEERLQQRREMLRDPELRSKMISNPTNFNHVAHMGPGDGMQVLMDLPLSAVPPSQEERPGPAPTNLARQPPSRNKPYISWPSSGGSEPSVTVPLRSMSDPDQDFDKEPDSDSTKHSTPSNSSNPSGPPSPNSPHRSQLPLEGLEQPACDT
ErbB4 (h), sequence (Q15303 26-1308): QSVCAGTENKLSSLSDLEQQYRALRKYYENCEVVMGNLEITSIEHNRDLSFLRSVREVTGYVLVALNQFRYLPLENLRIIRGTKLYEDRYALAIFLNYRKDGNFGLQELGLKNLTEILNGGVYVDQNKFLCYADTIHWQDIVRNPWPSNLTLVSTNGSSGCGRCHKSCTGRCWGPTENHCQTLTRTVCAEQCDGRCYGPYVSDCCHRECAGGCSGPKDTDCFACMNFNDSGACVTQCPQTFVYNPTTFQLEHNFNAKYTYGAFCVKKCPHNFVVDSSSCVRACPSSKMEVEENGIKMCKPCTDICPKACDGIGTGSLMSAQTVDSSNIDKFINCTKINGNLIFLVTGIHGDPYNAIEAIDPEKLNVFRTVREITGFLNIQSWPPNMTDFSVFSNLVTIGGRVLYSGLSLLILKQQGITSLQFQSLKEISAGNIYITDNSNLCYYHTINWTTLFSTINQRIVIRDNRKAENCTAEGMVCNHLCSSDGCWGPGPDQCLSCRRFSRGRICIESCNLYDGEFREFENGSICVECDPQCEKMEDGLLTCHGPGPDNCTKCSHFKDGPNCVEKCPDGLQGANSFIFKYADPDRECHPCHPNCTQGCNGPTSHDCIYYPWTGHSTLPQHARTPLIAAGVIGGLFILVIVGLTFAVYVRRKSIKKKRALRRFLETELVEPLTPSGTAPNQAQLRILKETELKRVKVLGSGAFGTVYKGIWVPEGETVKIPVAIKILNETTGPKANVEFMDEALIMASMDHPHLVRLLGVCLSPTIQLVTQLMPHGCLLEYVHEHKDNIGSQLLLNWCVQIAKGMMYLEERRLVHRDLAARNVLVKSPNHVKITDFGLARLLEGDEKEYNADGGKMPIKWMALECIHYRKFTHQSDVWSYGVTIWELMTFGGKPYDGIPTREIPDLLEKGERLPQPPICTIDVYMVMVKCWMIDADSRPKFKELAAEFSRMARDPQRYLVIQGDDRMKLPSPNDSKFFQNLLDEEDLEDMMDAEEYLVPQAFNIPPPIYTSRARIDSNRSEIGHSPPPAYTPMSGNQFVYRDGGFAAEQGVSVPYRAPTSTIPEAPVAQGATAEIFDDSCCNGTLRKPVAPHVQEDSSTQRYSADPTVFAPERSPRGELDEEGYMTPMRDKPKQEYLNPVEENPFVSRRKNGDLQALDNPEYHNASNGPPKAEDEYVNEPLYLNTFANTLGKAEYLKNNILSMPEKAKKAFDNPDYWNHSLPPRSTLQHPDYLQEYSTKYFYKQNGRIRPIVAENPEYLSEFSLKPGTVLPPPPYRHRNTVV

| Sequence | % activity (CDK2/cyclinE (h)) | % activity (Rsk4 (h)) | % activity (Ret(V804M) (h)) | % activity (ErbB4 (h)) | % activity (Mer (h)) | % activity (Haspin (h)) | % activity (MRCKβ (h)) | % activity (LIMK1 (h)) | % activity (Src(T341M) (h)) | % activity (Pim-1 (h)) |
| --- | --- | --- | --- | --- | --- | --- | --- | --- | --- | --- |
| FAKLAARLYRKALARQLGVAA [MMI-0300] | 94% | 90% | 95% | 40% | 52% | 48% | 83% | 88% | 70% | 8% |
| HRRIKAWLKKIKALARQLGVAA (Mammalian) [MMI-0500] | 19% | 29% | 36% | 2% | 17% | 25% | −10% | 87% | 59% | 0% |
| KAFAKLAARLYRKALARQLGVAA [MMI-0400] | 83% | 91% | 87% | 0% | 50% | 36% | 71% | 92% | 76% | 7% |
| YARAAARQARAKALNRQLGVA (Mammalian) [MMI-0200] | – | 125% | – | 82% | 90% | 71% | – | – | 56% | 18% |
